Article PMC10897913 (iScience, 2024)

Biological target: T1, GST-DUB3 (human, UniProt Q6R6M4 1-530)
T1 sequence (looked up): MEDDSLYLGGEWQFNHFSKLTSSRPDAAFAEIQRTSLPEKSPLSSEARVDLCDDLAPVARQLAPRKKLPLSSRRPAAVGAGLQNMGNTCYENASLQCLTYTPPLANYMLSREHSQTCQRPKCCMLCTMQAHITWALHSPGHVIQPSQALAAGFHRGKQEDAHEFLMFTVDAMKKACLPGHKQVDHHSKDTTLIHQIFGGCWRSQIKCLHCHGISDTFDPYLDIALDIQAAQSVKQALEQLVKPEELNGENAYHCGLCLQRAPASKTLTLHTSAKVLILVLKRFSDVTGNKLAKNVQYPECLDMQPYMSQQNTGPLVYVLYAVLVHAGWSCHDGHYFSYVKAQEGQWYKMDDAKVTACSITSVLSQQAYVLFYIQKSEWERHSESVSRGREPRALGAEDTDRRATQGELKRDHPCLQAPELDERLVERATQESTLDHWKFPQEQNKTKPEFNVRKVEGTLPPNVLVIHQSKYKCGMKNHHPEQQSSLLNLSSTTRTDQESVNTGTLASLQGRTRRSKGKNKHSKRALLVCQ
Assay: pull-down

B1: MAGEA3-His (natural protein, human, UniProt P43357 1-314, looked up)
chain: MPLEQRSQHCKPEEGLEARGEALGLVGAQAPATEEQEAASSSSTLVEVTLGEVPAAESPDPPQSPQGASSLPTTMNYPLWSQSYEDSSNQEEEGPSTFPDLESEFQAALSRKVAELVHFLLLKYRAREPVTKAEMLGSVVGNWQYFFPVIFSKASSSLQLVFGIELMEVDPIGHLYIFATCLGLSYDGLLGDNQIMPKAGLLIIVLAIIAREGDCAPEEKIWEELSVLEVFEGREDSILGDPKKLLTQHFVQENYLEYRQVPGSDPACYEFLWGPRALVETSYVKVLHHMVKISGGPHISYPPLHEWVLREGEE
- binding result: binds
